{"source": "patent US20250152742A1", "about": "“COMPOSITIONS AND METHODS FOR NEUROLOGICAL DISEASES” (Trames Bio, Inc., priority 2022, published 2025)", "molecules": {"B1": {"name": "CODA330: engineered receptor: L131F in SEQ ID NO: 33 (protein)", "chain": "MRCSPGGVWLALAASLLHVSLQGEFQRKLYKELVKNYNPLERPVANDSQPLTVYFSLSLLQIMDVDEKNQVLTTNIWLQMSWTDHYLQWNVSEYPGVKTVRFPDGQIWKPDILLYNSADERFDATFHTNVFVNSSGHCQYLPPGIFKSSCPMDLKNFPMDVQTCKLKFGSWSYGGWSLDLQMQEADISGYIPNGEWDLVGIPGKRSERFYECCKEPYPDVTFTVTMRRRMGYYLIQMYIPSLLIVILSWISFWINMDAAPARVGLGITTVLTMTTQSSGSRASLPKVSYVKAIDIWMAVCLLFVFSALLEYAAVNFVSRQHKELLRFRRKRRHHKSPMLNLFQEDEAGEGRFNFSAYGMGPACLQAKDGISVKGANNSNTTNPPPAPSKSPEEMRKLFIQRAKKIDKISRIGFPMAFLIFNMFYWIIYKIVRREDVHNQ", "modifications": "synthetic sequence of chimeric LGIC"}}, "test_system": "engineered chimeric receptor SEQ ID NO: 33 and its mutants (human α7-nAChR ligand binding domain / human GlyRα1 ion pore domain) in Lenti-X 293T cells", "assay": "YFP fluorescence quenching anion reporter plate reader assay (percent quench, EC50)", "assay_type": "cell-based", "settings": "for YFP fluorescence quenching using CNL001 (percent quench): receptor named in row; for YFP fluorescence quenching using Varenicline, 3 nM var: ligand Varenicline 3 nM; for YFP fluorescence quenching using Varenicline, 30 nM var: ligand Varenicline 30 nM; for YFP fluorescence quenching using Varenicline, 300 nM var: ligand Varenicline 300 nM; for YFP fluorescence quenching using Varenicline, 500 nM var: ligand Varenicline 500 nM; for YFP fluorescence quenching using Varenicline, 1 uM var: ligand Varenicline 1 uM", "summary_of_the_method": "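Lenti-X 293T cells co-expressing an anion-quenchable YFP were transiently transfected with receptor DNA, then ligand was added in NaI-substituted buffer (pH 7.2) after 30 min at 37 °C. Fluorescence was read about 2 min; percent quench = mean of last 10 s over 15 s pre-ligand baseline.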"}
{"molecule": "B1", "values": [{"measurement": "YFP fluorescence quenching using CNL001 (percent quench)", "setting": "1 nM CNL001, first column so headed", "value": 76.289, "unit": "%"}, {"measurement": "YFP fluorescence quenching using CNL001 (percent quench)", "setting": "1 nM CNL001, second column so headed", "value": 78.896, "unit": "%"}, {"measurement": "YFP fluorescence quenching using TC-5619/Bradanicline (percent quench)", "setting": "1 nM brd (TC-5619/Bradanicline)", "value": "−12.4", "unit": "%"}, {"measurement": "YFP fluorescence quenching using TC-5619/Bradanicline (percent quench)", "setting": "3 nM brd (TC-5619/Bradanicline)", "value": 25.12, "unit": "%"}, {"measurement": "YFP fluorescence quenching using CNL001 (percent quench)", "setting": "10 nM CNL001, first column so headed", "value": 79.339, "unit": "%"}, {"measurement": "YFP fluorescence quenching using CNL001 (percent quench)", "setting": "10 nM CNL001, second column so headed", "value": 80.245, "unit": "%"}, {"measurement": "YFP fluorescence quenching using TC-5619/Bradanicline (percent quench)", "setting": "10 nM brd (TC-5619/Bradanicline)", "value": 72.19, "unit": "%"}, {"measurement": "YFP fluorescence quenching using TC-6683 (percent quench)", "setting": "30 nM TC-6683", "value": "−22.26", "unit": "%"}, {"measurement": "YFP fluorescence quenching using TC-5619/Bradanicline (percent quench)", "setting": "30 nM brd (TC-5619/Bradanicline)", "value": 76.35, "unit": "%"}, {"measurement": "YFP fluorescence quenching using CNL001 (percent quench)", "setting": "50 nM CNL001, first column so headed", "value": 80.831, "unit": "%"}, {"measurement": "YFP fluorescence quenching using CNL001 (percent quench)", "setting": "50 nM CNL001, second column so headed", "value": 80.605, "unit": "%"}, {"measurement": "YFP fluorescence quenching using ABT-126 (percent quench)", "setting": "50 nM abt (ABT-126)", "value": "−16.22", "unit": "%"}, {"measurement": "YFP fluorescence quenching using CNL001 (percent quench)", "setting": "100 nM CNL001, first column so headed", "value": 81, "unit": "%"}, {"measurement": "YFP fluorescence quenching using CNL001 (percent quench)", "setting": "100 nM CNL001, second column so headed", "value": 80.663, "unit": "%"}, {"measurement": "YFP fluorescence quenching (percent quench)", "setting": "100 nM CNL002", "value": "−3.76", "unit": "%"}, {"measurement": "YFP fluorescence quenching using ABT-126 (percent quench)", "setting": "100 nM abt (ABT-126)", "value": "−11.89", "unit": "%"}, {"measurement": "YFP fluorescence quenching using AZD-0328 (percent quench)", "setting": "100 nM azd0328", "value": 27.56, "unit": "%"}, {"measurement": "YFP fluorescence quenching using TC-5619/Bradanicline (percent quench)", "setting": "100 nM brd (TC-5619/Bradanicline)", "value": 78.94, "unit": "%"}, {"measurement": "YFP fluorescence quenching using TC-6683 (percent quench)", "setting": "300 nM TC-6683", "value": "−18.89", "unit": "%"}, {"measurement": "YFP fluorescence quenching using ABT-126 (percent quench)", "setting": "300 nM abt (ABT-126)", "value": 39.23, "unit": "%"}, {"measurement": "YFP fluorescence quenching using AZD-0328 (percent quench)", "setting": "300 nM azd0328", "value": 73.35, "unit": "%"}, {"measurement": "YFP fluorescence quenching using TC-5619/Bradanicline (percent quench)", "setting": "300 nM brd (TC-5619/Bradanicline)", "value": 77.06, "unit": "%"}, {"measurement": "YFP fluorescence quenching using CNL001 (percent quench)", "setting": "1 uM CNL001, first column so headed", "value": 81.293, "unit": "%"}, {"measurement": "YFP fluorescence quenching using CNL001 (percent quench)", "setting": "1 uM CNL001, second column so headed", "value": 81.428, "unit": "%"}, {"measurement": "YFP fluorescence quenching (percent quench)", "setting": "1 uM CNL002", "value": 68.51, "unit": "%"}, {"measurement": "YFP fluorescence quenching using ABT-126 (percent quench)", "setting": "1 uM abt (ABT-126)", "value": 66.5, "unit": "%"}, {"measurement": "YFP fluorescence quenching using TC-5619/Bradanicline (percent quench)", "setting": "1 uM brd (TC-5619/Bradanicline)", "value": 78.61, "unit": "%"}, {"measurement": "YFP fluorescence quenching using TC-6683 (percent quench)", "setting": "3 uM TC-6683", "value": "−9.45", "unit": "%"}, {"measurement": "YFP fluorescence quenching (percent quench)", "setting": "10 uM ach (acetylcholine)", "value": 11.07, "unit": "%"}, {"measurement": "YFP fluorescence quenching (percent quench)", "setting": "30 uM CNL002", "value": 77.77, "unit": "%"}, {"measurement": "YFP fluorescence quenching using TC-6683 (percent quench)", "setting": "30 uM TC-6683", "value": "−9.23", "unit": "%"}, {"measurement": "YFP fluorescence quenching using AZD-0328 (percent quench)", "setting": "30 uM azd0328", "value": 77.14, "unit": "%"}, {"measurement": "YFP fluorescence quenching using TC-6683 (percent quench)", "setting": "100 uM TC-6683", "value": "−10.75", "unit": "%"}, {"measurement": "YFP fluorescence quenching (percent quench)", "setting": "100 uM ach (acetylcholine)", "value": 43.34, "unit": "%"}, {"measurement": "YFP fluorescence quenching (percent quench)", "setting": "1 mM ach (acetylcholine)", "value": 77.52, "unit": "%"}, {"measurement": "YFP fluorescence quenching (percent quench)", "setting": "3 mM ach (acetylcholine)", "value": 74.89, "unit": "%"}, {"measurement": "YFP fluorescence quenching using Facinicline, 30 nM fac", "setting": "ligand Facinicline 30 nM", "value": 2.9}, {"measurement": "YFP fluorescence quenching using Facinicline, 300 nM fac", "setting": "ligand Facinicline 300 nM", "value": 74.96}, {"measurement": "YFP fluorescence quenching using Facinicline, 10 uM fac", "setting": "ligand Facinicline 10 uM", "value": 81.97}, {"measurement": "YFP fluorescence quenching using Facinicline, 30 uM fac", "setting": "ligand Facinicline 30 uM", "value": 78.31}, {"measurement": "YFP fluorescence quenching using TC-6987, 1 uM tc6987", "setting": "ligand TC-6987 1 uM", "value": 53.37}, {"measurement": "YFP fluorescence quenching using TC-6987, 10 uM tc6987", "setting": "ligand TC-6987 10 uM", "value": 74.23}, {"measurement": "YFP fluorescence quenching using TC-6987, 500 uM tc6987", "setting": "ligand TC-6987 500 uM", "value": 72.25}, {"measurement": "YFP fluorescence quenching using Varenicline, 3 nM var", "setting": "first column", "value": "−3.016"}, {"measurement": "YFP fluorescence quenching using Varenicline, 3 nM var", "setting": "second column", "value": "−1.452"}, {"measurement": "YFP fluorescence quenching using Varenicline, 30 nM var", "setting": "first column", "value": "−0.193"}, {"measurement": "YFP fluorescence quenching using Varenicline, 30 nM var", "setting": "second column", "value": "−1.853"}, {"measurement": "YFP fluorescence quenching using Varenicline, 300 nM var", "setting": "first column", "value": 6.915}, {"measurement": "YFP fluorescence quenching using Varenicline, 300 nM var", "setting": "second column", "value": 6.513}, {"measurement": "YFP fluorescence quenching using Varenicline, 500 nM var", "setting": "first column", "value": 27.593}, {"measurement": "YFP fluorescence quenching using Varenicline, 500 nM var", "setting": "second column", "value": 29.863}, {"measurement": "YFP fluorescence quenching using Varenicline, 1 uM var", "setting": "first column", "value": 67.499}, {"measurement": "YFP fluorescence quenching using Varenicline, 1 uM var", "setting": "second column", "value": 65.57}]}
